Experimental data published in paper PMC4579851.
Each block holds one molecule with its values, some of them ahead of it.

Target: human ST2.Fc (extracellular domain of ST2 fused to Fc) (human) (UniProt Q01638)
Chain of UniProt Q01638 (Q01638 19-328): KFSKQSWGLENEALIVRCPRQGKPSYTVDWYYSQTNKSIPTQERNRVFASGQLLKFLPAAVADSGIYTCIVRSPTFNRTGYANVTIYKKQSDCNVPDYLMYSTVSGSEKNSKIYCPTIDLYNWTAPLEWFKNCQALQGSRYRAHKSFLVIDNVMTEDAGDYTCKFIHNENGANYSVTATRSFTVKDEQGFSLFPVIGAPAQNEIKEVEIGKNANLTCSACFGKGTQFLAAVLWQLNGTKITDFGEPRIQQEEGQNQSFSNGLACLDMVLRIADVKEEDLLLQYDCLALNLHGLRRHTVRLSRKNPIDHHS

- EC50 in a short duration signalling assay (NFκB p65/RelA translocation in HUVEC): 0.15 nM
Molecule: human IL-33 (amino acids 112-270), reduced form (from UniProt O95760 112-270) (ligand)

- EC50 in a short duration signalling assay (NFκB p65/RelA translocation in HUVEC): 0.15 nM
B1: human IL-33 (112-270) complete Cys→Ser mutant (C208S, C227S, C232S and C259S) (ligand)
chain: SITGISPITEYLASLSTYNDQSITFALEDESYEIYVEDLKKDEKKDKVLLSYYESQHPSNESGDGVDGKMLMVTLSPTKDFWLHANNKEHSVELHKSEKPLPDQAFFVLHNMHSNSVSFESKTDPGVFIGVKDNHLALIKVDSSENLSTENILFKLSET
